In patent publication US20250026850A1 (TRISHULA THERAPEUTICS, published 2025):

Tests used:
[1] = biological target: T1, cynomolgus macaque (Macaca fascicularis) CD39 on cells (cynomolgus macaque (Macaca fascicularis), UniProt P49961 7-510 (human entry)); experiment: flow cytometry on cyno PBMC, gated B cells, anti-human IgG PE, Prism fit; unit from the x axis
T1 construct: CHO cells engineered to express cyno CD39, or primary cyno B cells and monocytes; also called cyno CD39; cCD39
T1 chain: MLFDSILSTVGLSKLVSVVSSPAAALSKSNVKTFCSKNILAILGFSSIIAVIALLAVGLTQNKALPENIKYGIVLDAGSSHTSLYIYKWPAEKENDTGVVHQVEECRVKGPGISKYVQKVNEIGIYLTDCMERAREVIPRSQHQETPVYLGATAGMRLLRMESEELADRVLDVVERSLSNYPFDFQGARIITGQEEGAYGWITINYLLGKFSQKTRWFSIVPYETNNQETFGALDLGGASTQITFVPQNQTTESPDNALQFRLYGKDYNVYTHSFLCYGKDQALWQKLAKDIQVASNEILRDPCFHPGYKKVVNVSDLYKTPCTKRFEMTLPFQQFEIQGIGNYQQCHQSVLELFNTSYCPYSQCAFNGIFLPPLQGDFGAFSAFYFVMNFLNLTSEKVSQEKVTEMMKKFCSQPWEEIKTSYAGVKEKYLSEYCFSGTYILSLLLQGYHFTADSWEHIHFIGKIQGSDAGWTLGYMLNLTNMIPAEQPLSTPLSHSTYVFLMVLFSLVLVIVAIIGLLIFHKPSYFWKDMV
Method: (§1) EC50 was calculated using GrapPad Prism software. […] B cells were gated using FlowJo software and ECsos were calculated using GraphPad Prism.
(§2) B cells were isolated from human donor leukopak using EasySep B cell isolation kit ([…] Technologies). Cyno monocytes were purified from fresh cyno blood using NHP CD14 positive selection kit (Miltenyi) and flow through was collected and stained with CD4, CD8, CD20, CD16, and CD3 antibodies (BD). […] Cell were washed 3 times in FACS buffer (PS, 2% FBS, and 2 mM EDTA) and incubated with secondary antibody (mouse anti-human IgG southern biotech) at 1:100 for 30 minutes at 4 degrees C. Cells were washed 2 times in FACS buffer and resuspended in FACS buffer and analyzed on BD Celesta.

human CD39 on cells [2] = biological target: T2, human CD39 on cells (human, UniProt P49961 1-510); experiment: flow cytometry, 100 nM IgG, hCD39-CHO cells; MFI ratio to parental CHO
T2 construct: One molecule for all cells that carry human CD39; the cell is named under assay; also called hCD39; cellular CD39
T2 sequence: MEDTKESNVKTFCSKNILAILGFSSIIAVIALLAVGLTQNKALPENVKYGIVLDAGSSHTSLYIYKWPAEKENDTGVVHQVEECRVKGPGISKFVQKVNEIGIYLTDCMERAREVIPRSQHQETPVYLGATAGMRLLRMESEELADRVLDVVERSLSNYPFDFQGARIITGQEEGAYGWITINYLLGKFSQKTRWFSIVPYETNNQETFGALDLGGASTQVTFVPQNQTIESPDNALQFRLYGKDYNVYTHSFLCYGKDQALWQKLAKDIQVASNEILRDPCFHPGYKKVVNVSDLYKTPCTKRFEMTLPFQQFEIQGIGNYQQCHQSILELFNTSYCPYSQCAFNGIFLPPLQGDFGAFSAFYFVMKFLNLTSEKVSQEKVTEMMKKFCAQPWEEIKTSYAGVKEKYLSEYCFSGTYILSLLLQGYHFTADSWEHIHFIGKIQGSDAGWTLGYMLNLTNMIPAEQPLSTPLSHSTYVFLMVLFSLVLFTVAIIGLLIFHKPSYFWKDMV

[3] = biological target: T3, rhCD39-ECD-His (R&D Systems) (human, UniProt P49961 38-478); experiment: BLI (Octet), IgG on anti-human Fc sensor, rhCD39-ECD-His 10-300 nM, 1:1 fit
T3 construct: Bought protein; that entry runs on through the C-terminal transmembrane and cytoplasmic residues; also called recombinant human CD39 extracellular domain; soluble recombinant human CD39 (ENTDP1) ECD; not shown: His tag
T3 sequence: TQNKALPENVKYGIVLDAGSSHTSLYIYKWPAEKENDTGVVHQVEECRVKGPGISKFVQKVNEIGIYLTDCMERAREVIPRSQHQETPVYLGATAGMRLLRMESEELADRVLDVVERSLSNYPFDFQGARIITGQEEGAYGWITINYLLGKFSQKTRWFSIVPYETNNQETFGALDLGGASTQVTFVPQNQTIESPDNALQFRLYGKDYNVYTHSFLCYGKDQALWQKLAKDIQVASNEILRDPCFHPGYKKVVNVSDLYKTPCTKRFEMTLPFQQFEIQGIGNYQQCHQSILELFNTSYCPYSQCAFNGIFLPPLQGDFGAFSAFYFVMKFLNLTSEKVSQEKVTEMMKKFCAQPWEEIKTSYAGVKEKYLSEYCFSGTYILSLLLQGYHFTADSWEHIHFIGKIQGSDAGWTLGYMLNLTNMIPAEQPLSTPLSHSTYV

human CD39 on cells [4] = biological target: T2, human CD39 on cells; experiment: flow cytometry on MEL-28 cells, anti-human IgG secondary, Prism fit; unit from the x axis
Method: (§3) Cells were washed 3 times in FACS buffer (PS, 2% FBS, and 2 mM EDTA) and next incubated with secondary antibody (goat anti-human IgG Southern Biotech) at 1:100 for 30 minutes at 4 degrees C. Cells were washed, resuspended in FACS buffer, and analyzed for binding by flow cytometry analysis on BD Celesta.

[5] = biological target: T1, cynomolgus macaque (Macaca …); experiment: flow cytometry, 100 nM IgG, cCD39-CHO cells; MFI ratio to parental CHO
human CD39 on cells [6] = biological target: T2, human CD39 on cells; experiment: flow cytometry on 721 cells, anti-human IgG secondary, Prism fit; unit from the x axis
Method: as §3

human CD39 on cells [7] = biological target: T2, human CD39 on cells; experiment: flow cytometry on purified human CD4+CD25+CD127dim Treg cells, anti-human IgG secondary, Prism fit; unit from the x axis
Method: Treg cells were isolated from human donor leukopak using CD4⁺CD25⁺CD127^dim regulatory T cell isolation kit II (Miltenyi). […] Cell were washed 3 times in FACS buffer (PS, 2% FBS, and 2 mM EDTA) and incubated with secondary antibody (mouse anti-human IgG southern biotech) at 1:100 for 30 minutes at 4 degrees C. Cells were washed 2 times in FACS buffer, resuspended in FACS buffer and analyzed on BD Fortessa.

human CD39 on cells [8] = biological target: T2, human CD39 on cells; experiment: flow cytometry on purified human B cells, anti-human IgG-PE, Prism fit; unit from the x axis
Method: as §1, §2

B1: 31901 (antibody, V domains shown)
VH: QVQLVQSGAEVKKPGSSVKVSCKASGGTFSSLPISWVRQAPGQGLEWMGGIGFGTANYAQKFQGRVTITADESTSTAYMELSSLRSEDTAVYYCARGGAKYAGRYGMDVWGQGTTVTVSS
VL: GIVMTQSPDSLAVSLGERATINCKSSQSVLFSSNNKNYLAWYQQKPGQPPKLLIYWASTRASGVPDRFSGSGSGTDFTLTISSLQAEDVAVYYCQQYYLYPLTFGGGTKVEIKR
In the case of B1, the EC50 [1] is reported as 0.124 µg/mL, the “Cell Binding (FOB)” value (human CD39 on cells [2]) is reported as 1110 FOB and the Kd [3] is reported as 0.128 nM. It also gave a koff [3] of 0.000132 s⁻¹, a kon [3] of 1.03e+06 M⁻¹ s⁻¹ and an EC50 (human CD39 on cells [4]) of 0.102 µg/mL. For the same binder, the “Cell Binding (FOB)” value [5] was 4660 FOB, the EC50 (human CD39 on cells [6]) was 0.851 µg/mL and the EC50 (human CD39 on cells [7]) was 0.519 nM. The EC50 (human CD39 on cells [8]) was 0.0438 µg/mL.

B2: 31905 (antibody, V domains shown)
VH: QVQLVQSGAEVKKPGSSVKVSCKASGGTFPSNAISWVRQAPGQGLEWMGGIGFGTANYAQKFQGRVTITADESTSTAYMELSSLRSEDTAVYYCARGGAKYARTYGMDVWGQGTTVTVSS
VL: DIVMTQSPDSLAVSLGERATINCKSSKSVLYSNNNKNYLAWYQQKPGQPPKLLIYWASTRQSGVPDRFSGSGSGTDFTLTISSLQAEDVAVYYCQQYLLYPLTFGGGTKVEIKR
For B2, the EC50 [1] was 0.124 µg/mL, the “Cell Binding (FOB)” value (human CD39 on cells [2]) was 1080 FOB and the Kd [3] was 0.0731 nM. For the same binder, the koff [3] was 0.000111 s⁻¹, the kon [3] was 1.52e+06 M⁻¹ s⁻¹ and the EC50 (human CD39 on cells [4]) was 0.159 µg/mL. For the same binder, the “Cell Binding (FOB)” value [5] was 4940 FOB, the EC50 (human CD39 on cells [6]) was 2.63 µg/mL and the EC50 (human CD39 on cells [7]) was 0.735 nM. It also gave an EC50 (human CD39 on cells [8]) of 0.0805 µg/mL.
